Measurements: patent US20250074996A1 (Innovent, published 2025)
Where two headings read alike, the source gives them in different places.

Assays:
[1] = biological target: T1, CD3E on the surface of Jurkat-NFAT-Luc cells (UniProt P07766 23-207); test: cell-based or functional assay
[2] = biological target: T1, CD3E on the surface of Jurkat-NFAT-Luc …; test: cell-based or functional assay; remark: listed apart in the source
[3] = biological target: T1, CD3E on the surface of Jurkat-NFAT-Luc …; test: cell-based or functional assay; remark: listed apart in the source
[4] = biological target: T1, CD3E on the surface of Jurkat-NFAT-Luc …; test: cell-based or functional assay; remark: listed apart in the source
Human CD3D&E-Bio = biological target: T2, Human CD3D&E-Bio (human, UniProt P07766 23-126; P04234 22-105, biotin-labeled (site not stated)); test: BLI (Octet Red96e), SA or AHC sensors, 1:1 fit
T2 construct: Bought heterodimer antigen; also called human CD3D&E heterodimer antigen (ACRO Biosystems); human CD3E
T2 sequence (P07766 23-126 limits assumed, chain 1 of 2): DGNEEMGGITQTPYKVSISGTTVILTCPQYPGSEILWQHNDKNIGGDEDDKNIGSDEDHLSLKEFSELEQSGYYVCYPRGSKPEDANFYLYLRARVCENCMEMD
T2 sequence (P04234 22-105 limits assumed, chain 2 of 2): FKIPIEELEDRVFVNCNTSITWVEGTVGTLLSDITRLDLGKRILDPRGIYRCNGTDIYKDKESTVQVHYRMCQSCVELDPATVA
Description: (§1) Sensors (Fortebio, Cat #18-5019) coupled to streptavidin protein (SA) or anti-human-Fc (AHC) were pre-wetted by immersion in 200 μL of SD buffer (1×PBS, 0.1% BSA, 0.05% tween-20). Exemplary antibodies and biotin-labeled or Fc-tagged BCMA and CD3D&E heterodimer antigens were diluted with SD buffer, respectively. 200 μL of SD buffer and diluted samples (100 nM) were taken and added to a 96-well black plate (Greiner, Cat #655209), respectively. The sensors and the samples were placed in Octet (Fortebio, Red96e). Data Acquisition 10.0 was executed and “New Kinetic Experiment” was selected. The sensors were arranged according to the positions of the samples, and the operation procedures and times were set as: Baseline 60 s, Loading 250 s, Baseline 100 s, Association 600 s and Dissociation 600 s. The experiment was conducted at a rotation speed of 1000 rpm and 30° C.
(§2) The results were analyzed in “Data Analysis 10.0” software, with the buffer reference channel being subtracted. 1:1 binding was selected to fit the data, and kₒₙ, koff, and KD values for the exemplary antibodies were calculated.
(§3) In experiments performed according to the above-mentioned assay, the affinities of the exemplary antibodies were detected using a human CD3D&E heterodimer antigen (ACRO Biosystems) and a monkey CD3D&E heterodimer antigen (ACRO Biosystems). The binding affinities of GPRC5D×CD3 bispecific antibodies hz5E12.1-P1/SP34.24 and hz5E12.1-P1/SP34.87 to human/monkey CD3D&E were also detected.

Cyno CD3D&E-Bio = biological target: T3, Cyno CD3D&E-Bio (monkey (cyno), UniProt Q95LI5 22-117; Q95LI8 22-105, biotin-labeled (site not stated)); test: BLI (Octet Red96e), SA or AHC sensors, 1:1 fit
T3 construct: Bought heterodimer antigen; also called monkey CD3D&E heterodimer antigen (ACRO Biosystems); monkey CD3E
T3 sequence (Q95LI5 22-117 limits assumed, chain 1 of 2): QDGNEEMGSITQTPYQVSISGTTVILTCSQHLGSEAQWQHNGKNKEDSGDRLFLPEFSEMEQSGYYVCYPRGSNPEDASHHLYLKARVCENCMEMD
T3 sequence (Q95LI8 22-105 limits assumed, chain 2 of 2): as the sequence (P04234 22-105 limits assumed, chain 2 of 2) above, with I5V, N15K, I20V, S32T, D33N, I34N, T64A, S74N, V83L counted along it
Description: as §1, §2, §3

T1 sequence (P07766 23-207): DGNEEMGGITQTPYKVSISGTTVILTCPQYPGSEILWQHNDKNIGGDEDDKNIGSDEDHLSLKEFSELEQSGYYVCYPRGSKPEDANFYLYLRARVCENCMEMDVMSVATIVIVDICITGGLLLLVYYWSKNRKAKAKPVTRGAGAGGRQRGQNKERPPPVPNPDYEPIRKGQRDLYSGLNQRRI

Binder	EC50 of Jurkat-NFAT-Luc luciferase activation; tumor cells H929 [1]	EC50 of Jurkat-NFAT-Luc luciferase activation; tumor cells L363 [1]	EC50 of Jurkat-NFAT-Luc luciferase activation; target cells huGPRC5D-GS-CHO [1]	EC50 of Jurkat-NFAT-Luc luciferase activation; tumor cells U266 [1]	EC50 of Jurkat-NFAT-Luc luciferase activation; tumor cells 8226 [2]	EC50 of Jurkat-NFAT-Luc luciferase activation; tumor cells H929 [2]	EC50 of Jurkat-NFAT-Luc luciferase activation; tumor cells L363 [2]	EC50 of Jurkat-NFAT-Luc luciferase activation; tumor cells U266 [2]	further results
TS-F6-2 (antibody, human IgG1, kappa, L234A L235A) heavy: not shown light: DIQMTQTTSSLSASLGDRVTISCRASQDIRNYLNWYQQRPDGTIKLLIYYTSRLHSGVPSRFSGSGSGTDYSLTISNLDQEDFATYFCQQGNMLPWTFGGGTSLEIKRTVAAPSVFIFPPSDEQLKSGTASVVCLLNNFYPREAKVQWKVDNALQSGNSQESVTEQDSKDSTYSLSSTLTLSKADYEKHKVYACEVTHQGLSSPVTKSFNRGECGGGGSGGGGSEVQLVESGGGLVQPGGSLKLSCAASGFTFNTYAMNWVRQASGKCLEWVGRIRSKYNNYATYYADSVKDRFTISRDDSKSTLYLQMNSLKTEDTAVYYCARHGNFGQSYVSWFAYWGQGTTVTVSSGGGGSGGGGSGGGGSGGGGSQAVVTQEPSLTVSPGGTVTLTCRSSTGAVTTSNYANWVQQKPGQAPRGLIGGTNKRAPGVPARFSGSLLGDKAALTLLGAQPEDEAEYYCALWYSNLWVFGCGTKLTVL	2.2 nM	0.0617 nM							
TS-F2-3 (ch7F5D4/SP34.24/38456) (antibody, human IgG1, kappa, lambda, L234A L235A) heavy 1: not shown light 1: DIQMTQTTSSLSASLGDRVTISCRASQDIRNYLNWYQQRPDGTIKLLIYYTSRLHSGVPSRFSGSGSGTDYSLTISNLDQEDFATYFCQQGNMLPWTFGGGTSLEIKRTVAAPSVFIFPPSDEQLKSGTASVVCLLNNFYPREAKVQWKVDNALQSGNSQESVTEQDSKDSTYSLSSTLTLSKADYEKHKVYACEVTHQGLSSPVTKSFNRGEC heavy 2: not shown light 2: QAVVTQEPSLTVSPGGTVTLTCRSSTGAVTTSNYANWVQQKPGQAPRGLIGGTNKRAPGVPARFSGSLLGDKAALTLLGAQPEDEAEYYCALWYSNLWVFGQGTKLTVLGQPKAAPSVTLFPPSSEELQANKATLVCLISDFYPGAVTVAWKADSSPVKAGVETTTPSKQSNNKYAASSYLSLTPEQWKSHRSYSCQVTHEGSTVEKTVAPTECS	0.00547 nM	0.00286 nM	0.00145 nM	0.047 nM					
GPRC5D×CD3 bispecific antibody (ch7F5D4/hzsp34.24) (bispecific antibody, V domains shown) VH 1: DVQLQESGPGLVKPSQSLSLTCTVTGYSITSDYAWNWIRQFPGNKLEWMVYIDYTGRTSYNPSLKSRISLTRDTSKNQFFLQFNSVTTEDTATYYCARGNYGRYYYVMDYWGQGTSVTVSS VL 1: DIQMTQTTSSLSASLGDRVTISCRASQDIRNYLNWYQQRPDGTIKLLIYYTSRLHSGVPSRFSGSGSGTDYSLTISNLDQEDFATYFCQQGNMLPWTFGGGTSLEIK VH 2: EVQLVESGGGLVQPGGSLKLSCAASGFTFNTYAMNWVRQASGKGLEWVGRIRSKYNNYATYYADSVKDRFTISRDDSKSTLYLQMNSLKTEDTAVYYCARHGNFGQSYVSWFAYWGQGTTVTVSS VL 2: QAVVTQEPSLTVSPGGTVTLTCRSSTGAVTTSNYANWVQQKPGQAPRGLIGGTNKRAPGVPARFSGSLLGDKAALTLLGAQPEDEAEYYCALWYSNLWVFGQGTKLTVL	0.00772 nM	0.00562 nM	0.00566 nM	0.0361 nM					
BCMA×CD3 bispecific antibody (38456/hzsp34.24) (bispecific antibody, V domains shown) VH 1: EVQLVESGGGLVQPGRSLRLSCAASGFTFGDYAIHWVRQAPGKGLEWVSGISWDSSSIAYADSVKGRFTISRDNAKNSLYLQMNSLRAEDTAVYYCAKDSPVRDSFGSIAFDIWGQGTMVTVSS VL 1: EIVLTQSPATLSLSPGERATLSCRASQSVSSYLAWYQQKPGQAPRLLIYDASKRATGIPARFSGSGSGTDFTLTISSLEPEDFAVYYCQQASALPLTFGGGTKVEIK VH 2: EVQLVESGGGLVQPGGSLKLSCAASGFTFNTYAMNWVRQASGKGLEWVGRIRSKYNNYATYYADSVKDRFTISRDDSKSTLYLQMNSLKTEDTAVYYCARHGNFGQSYVSWFAYWGQGTTVTVSS VL 2: QAVVTQEPSLTVSPGGTVTLTCRSSTGAVTTSNYANWVQQKPGQAPRGLIGGTNKRAPGVPARFSGSLLGDKAALTLLGAQPEDEAEYYCALWYSNLWVFGQGTKLTVL					0.00482 nM	0.0596 nM	0.0366 nM	0.011 nM	
GPRC5D×CD3 bispecific antibody hz5E12.1-P1/SP34.24 (bispecific antibody, V domains shown) VH 1: QVQLVQSGAEVKKPGASVKVSCKASGYTFIGYVMHWVRQAPGQGLEWMGYINPYNDVSQHQGKFKGRVTMTSDTSTSTVYMELSSLRSEDTAVYYCAREGRLGLRVLAYWGQGTLVTVSS VL 1: DIVMTQSPDSLAVSLGERATINCRASESVDSYGITFMNWYQQKPGQPPKLLIYAASNQGSGVPDRFSGSGSGTDFTLTISSLQAEDVAVYYCQQSKEVPWTFGQGTKLEIK VH 2: EVQLVESGGGLVQPGGSLKLSCAASGFTFNTYAMNWVRQASGKGLEWVGRIRSKYNNYATYYADSVKDRFTISRDDSKSTLYLQMNSLKTEDTAVYYCARHGNFGQSYVSWFAYWGQGTTVTVSS VL 2: QAVVTQEPSLTVSPGGTVTLTCRSSTGAVTTSNYANWVQQKPGQAPRGLIGGTNKRAPGVPARFSGSLLGDKAALTLLGAQPEDEAEYYCALWYSNLWVFGQGTKLTVL					0.00318 nM	0.00656 nM	0.00559 nM	0.0057 nM	EC50 of Jurkat-NFAT-Luc luciferase activation; tumor cells 8226 [3]: 0.00318 nM; EC50 of Jurkat-NFAT-Luc luciferase activation; tumor cells H929 [3]: 0.00656 nM; EC50 of Jurkat-NFAT-Luc luciferase activation; tumor cells L363 [3]: 0.00559 nM; EC50 of Jurkat-NFAT-Luc luciferase activation; tumor cells U266 [3]: 0.0057 nM; EC50 of Jurkat-NFAT-Luc luciferase activation; tumor cells ARD [4]: 0.00273 nM; EC50 of Jurkat-NFAT-Luc luciferase activation; tumor cells MM.1S [4]: 0.00225 nM; Kd (Human CD3D&E-Bio): 21.4 nM; koff (Human CD3D&E-Bio): 0.00335 s⁻¹; kon (Human CD3D&E-Bio): 156000 M⁻¹ s⁻¹; Kd (Cyno CD3D&E-Bio): 26 nM; koff (Cyno CD3D&E-Bio): 0.00319 s⁻¹; kon (Cyno CD3D&E-Bio): 123000 M⁻¹ s⁻¹
GPRC5D×CD3 bispecific antibody hz5E12.1-P1/SP34.87 (bispecific antibody, V domains shown) VH 1: QVQLVQSGAEVKKPGASVKVSCKASGYTFIGYVMHWVRQAPGQGLEWMGYINPYNDVSQHQGKFKGRVTMTSDTSTSTVYMELSSLRSEDTAVYYCAREGRLGLRVLAYWGQGTLVTVSS VL 1: DIVMTQSPDSLAVSLGERATINCRASESVDSYGITFMNWYQQKPGQPPKLLIYAASNQGSGVPDRFSGSGSGTDFTLTISSLQAEDVAVYYCQQSKEVPWTFGQGTKLEIK VH 2: EVQLVESGGGLVQPGGSLKLSCAASGFTFNTYAMNWVRQASGKGLEWVGRIRSKYNNYATYYADSVKDRFTISRDDSKSTLYLQMNSLKTEDTAVYYCARHYNFGQSYVSWFAYWGQGTTVTVSS VL 2: QAVVTQEPSLTVSPGGTVTLTCRSSTGAVTTSNYANWVQQKPGQAPRGLIGGTNKRAPGVPARFSGSLLGDKAALTLLGAQPEDEAEYYCALWYSNLWVFGQGTKLTVL					0.0201 nM	0.0453 nM	0.0389 nM	0.145 nM	EC50 of Jurkat-NFAT-Luc luciferase activation; tumor cells ARD [4]: 0.0149 nM; EC50 of Jurkat-NFAT-Luc luciferase activation; tumor cells MM.1S [4]: 0.0183 nM; Kd (Human CD3D&E-Bio): 285 nM; koff (Human CD3D&E-Bio): 0.0176 s⁻¹; kon (Human CD3D&E-Bio): 61900 M⁻¹ s⁻¹; Kd (Cyno CD3D&E-Bio): 290 nM; koff (Cyno CD3D&E-Bio): 0.0169 s⁻¹; kon (Cyno CD3D&E-Bio): 58300 M⁻¹ s⁻¹
TS-F6-1 (antibody, human IgG1, kappa, L234A L235A) heavy: not shown light: DIQMTQTTSSLSASLGDRVTISCRASQDIRNYLNWYQQRPDGTIKLLIYYTSRLHSGVPSRFSGSGSGTDYSLTISNLDQEDFATYFCQQGNMLPWTFGGGTSLEIKRTVAAPSVFIFPPSDEQLKSGTASVVCLLNNFYPREAKVQWKVDNALQSGNSQESVTEQDSKDSTYSLSSTLTLSKADYEKHKVYACEVTHQGLSSPVTKSFNRGECGGGGSGGGGSQAVVTQEPSLTVSPGGTVTLTCRSSTGAVTTSNYANWVQQKPGQAPRGLIGGTNKRAPGVPARFSGSLLGDKAALTLLGAQPEDEAEYYCALWYSNLWVFGCGTKLTVLGGGGSGGGGSGGGGSGGGGSEVQLVESGGGLVQPGGSLKLSCAASGFTFNTYAMNWVRQASGKCLEWVGRIRSKYNNYATYYADSVKDRFTISRDDSKSTLYLQMNSLKTEDTAVYYCARHGNFGQSYVSWFAYWGQGTTVTVSS	3.79 nM	0.0771 nM	0.00966 nM	0.366 nM					
